The assay addresses T1, REFACTO® (Homo sapiens, UniProt P00451).
T1 construct: amino acids 1-743 and 1638 through 2332 of human factor VIII; purchased Genetics Institute, Inc. (Cambridge, Mass.)
T1 sequence (P00451 20-762): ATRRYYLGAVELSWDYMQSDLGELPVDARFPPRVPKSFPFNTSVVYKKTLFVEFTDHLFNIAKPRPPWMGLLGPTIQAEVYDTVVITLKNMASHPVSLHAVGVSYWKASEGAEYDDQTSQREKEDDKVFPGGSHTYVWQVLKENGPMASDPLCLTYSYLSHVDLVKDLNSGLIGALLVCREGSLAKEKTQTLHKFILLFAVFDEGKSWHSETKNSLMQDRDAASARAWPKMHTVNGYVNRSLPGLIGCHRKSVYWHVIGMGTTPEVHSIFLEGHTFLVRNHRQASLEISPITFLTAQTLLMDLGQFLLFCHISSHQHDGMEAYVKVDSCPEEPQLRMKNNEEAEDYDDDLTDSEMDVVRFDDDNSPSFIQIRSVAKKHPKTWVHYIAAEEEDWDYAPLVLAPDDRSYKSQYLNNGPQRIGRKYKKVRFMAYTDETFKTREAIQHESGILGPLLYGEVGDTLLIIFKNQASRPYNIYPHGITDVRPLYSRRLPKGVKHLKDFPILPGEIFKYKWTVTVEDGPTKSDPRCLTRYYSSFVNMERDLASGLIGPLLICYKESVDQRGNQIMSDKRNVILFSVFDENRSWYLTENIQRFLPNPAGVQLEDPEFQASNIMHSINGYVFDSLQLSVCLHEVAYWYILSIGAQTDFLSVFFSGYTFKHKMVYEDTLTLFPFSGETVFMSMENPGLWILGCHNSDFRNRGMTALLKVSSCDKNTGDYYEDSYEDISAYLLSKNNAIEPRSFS
T1 sequence (P00451 1657-2351): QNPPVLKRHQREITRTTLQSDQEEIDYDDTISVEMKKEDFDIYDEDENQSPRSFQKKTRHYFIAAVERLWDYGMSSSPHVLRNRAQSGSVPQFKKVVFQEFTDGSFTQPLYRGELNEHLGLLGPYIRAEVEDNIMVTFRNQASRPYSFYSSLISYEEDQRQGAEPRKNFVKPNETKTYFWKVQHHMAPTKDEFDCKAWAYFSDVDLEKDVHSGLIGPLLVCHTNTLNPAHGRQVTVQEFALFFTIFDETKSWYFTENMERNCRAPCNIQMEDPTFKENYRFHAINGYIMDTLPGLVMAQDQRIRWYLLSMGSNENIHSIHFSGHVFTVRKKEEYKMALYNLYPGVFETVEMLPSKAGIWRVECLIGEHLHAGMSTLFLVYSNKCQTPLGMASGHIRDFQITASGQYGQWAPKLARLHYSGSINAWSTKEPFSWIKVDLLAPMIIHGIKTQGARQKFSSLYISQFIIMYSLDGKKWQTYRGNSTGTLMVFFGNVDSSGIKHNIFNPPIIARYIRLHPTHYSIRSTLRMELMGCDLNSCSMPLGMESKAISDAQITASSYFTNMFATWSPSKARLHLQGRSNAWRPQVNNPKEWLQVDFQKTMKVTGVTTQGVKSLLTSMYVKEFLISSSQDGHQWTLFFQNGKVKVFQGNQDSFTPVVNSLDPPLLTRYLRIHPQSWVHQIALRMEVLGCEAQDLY
Description: Batch binding and elution of REFACTO® with immobilized polypeptide ligands (factor VIII sandwich ELISA). The settings on record: for % of Input Recovered in: Eluate: Buffer A, 50% ethylene glycol, pH 6.3, 15 minutes; for % of Input Recovered in: Unbound: REFACTO® ~50 U in Buffer 1, 1 h RT, supernatant after binding; for % of Input Recovered in: Total: Unbound, Wash and Eluate fractions together; for % of Input Recovered in: Wash: one wash with Buffer 1. An excerpt:
A commercial ELISA kit (IMUBIND fVIII ELISA kit, Product #884, American, Inc., Greenwich, Conn.) developed to detect factor VIII was used according to the manufacturer's specifications in order to detect both the REFACTO® and the nhfVIII targets. The kit employs a sandwich ELISA assay in which the target is captured by an immobilized monoclonal antibody and the captured target is detected with a second monoclonal antibody-horseradish peroxidase (HRP) conjugate. Addition of the peroxidase substrate and its subsequent reaction with the HRP produces a blue color (detected at 630 nm) which changes to yellow (detected at 450 nm) on addition of the 0.5N sulfuric acid stop solution. Color response is calibrated with factor VIII standards provided by the manufacturer.
REFACTO® binding was tested in Buffer 1. The binding of both REFACTO® and nfhVIII were tested using three affinity resins prepared as in Example II, using the affinity peptides CS-454, CS-456, and CS-458 immobilized on Toyopearl Formyl 650-M medium. Ligand density for each polypeptide was 1.79 mg/ml (0.67 μmol/ml), 3.69 mg/ml ([…]) and 3.15 mg/ml (1.17 μmol/ml) respectively.
For each of the three immobilized peptides tested, peptide-beads from […] of a 50% slurry of Toyopearl-coupled polypeptide suspension were centrifuged briefly (30 seconds at 2000×g at room temperature), the supernatant fluid was removed, and the beads (pellets) were washed two times. For each wash, the beads were resuspended in 500 μl of Buffer 1 and centrifuged as before.
The stock solution of REFACTO® was diluted to a final concentration of 200 U/ml in Buffer 1 and 250 μl of the diluted solution (˜50 U total) was added to a washed pellet of each of the peptide-beads. The suspension was incubated on an end-over-end mixer at RT for one hour, after which binding period the beads were pelleted by centrifugation (30 seconds, 2000×g) and the supernatant solutions, representing the unbound fraction (“Unbound” in Table 7, below), were removed and retained for assay of unbound factor VIII activity.
The pelleted beads were washed one time by adding 250 μl of Buffer 1, mixed briefly and the suspension centrifuged as before. The supernatant solutions (“Wash” in Table 7) were removed and retained for assay of factor VIII activity.
The washed pellets were resuspended in 250 μl of Buffer A (20 mM L-Histidine-HCl, 250 mM NaCl, 20 mM CaCl2, 0.01% Tween 80, 50% ethylene glycol, pH 6.3) and incubated on an end-over-end mixer for 15 minutes at room temperature. At the end of the elution period, the suspensions were centrifuged as above. The supernatant solutions (“Eluate” in Table 7) were removed and retained for assay of eluted factor VIII activity.
The starting (diluted) REFACTO® solution (Input) and each sample (Unbound, Wash, and Eluate) taken as described above were diluted 1:1400 in Assay Diluent (provided with kit), then subjected to ELISA using the commercial factor VIII assay kit.

Positions of bridges follow the written chain, without caps; N, C: chain ends. No end group written: not given here. *: point of attachment. NHNH2 = NN*

Regarding “AEGTGDFCWVFAFDHCHDPGPEGGGS-NHNH2 (disulfide 8-16 (inferred)) [CS-458]”, the “% of Input Recovered in: Eluate” value is recorded as 47%, the “% of Input Recovered in: Unbound” value amounted to 20%, the “% of Input Recovered in: Total” value is recorded as 76% and the “% of Input Recovered in: Wash” value is reported as 10%.
Take “AEGTGDFGCSWLFPCPFDPGPEGGGS-NHNH2 (disulfide 9-15 (inferred)) [CS-456]”: the “% of Input Recovered in: Eluate” value stood at 24%, the “% of Input Recovered in: Unbound” value came to 47%, the “% of Input Recovered in: Total” value is reported as 91% and the “% of Input Recovered in: Wash” value turned out to be 20%.
As to “AEGTGDHLCGAWFRPCDADPGPEGGGS-NHNH2 (disulfide 9-16 (inferred)) [CS-454]”, the “% of Input Recovered in: Eluate” value came to 49%, the “% of Input Recovered in: Unbound” value was 24% and the “% of Input Recovered in: Total” value was found to be 85%.
